T1: hiR2-FL-Q437D-T7 (human, UniProt Q6PJF5 1-856)
T1 sequence: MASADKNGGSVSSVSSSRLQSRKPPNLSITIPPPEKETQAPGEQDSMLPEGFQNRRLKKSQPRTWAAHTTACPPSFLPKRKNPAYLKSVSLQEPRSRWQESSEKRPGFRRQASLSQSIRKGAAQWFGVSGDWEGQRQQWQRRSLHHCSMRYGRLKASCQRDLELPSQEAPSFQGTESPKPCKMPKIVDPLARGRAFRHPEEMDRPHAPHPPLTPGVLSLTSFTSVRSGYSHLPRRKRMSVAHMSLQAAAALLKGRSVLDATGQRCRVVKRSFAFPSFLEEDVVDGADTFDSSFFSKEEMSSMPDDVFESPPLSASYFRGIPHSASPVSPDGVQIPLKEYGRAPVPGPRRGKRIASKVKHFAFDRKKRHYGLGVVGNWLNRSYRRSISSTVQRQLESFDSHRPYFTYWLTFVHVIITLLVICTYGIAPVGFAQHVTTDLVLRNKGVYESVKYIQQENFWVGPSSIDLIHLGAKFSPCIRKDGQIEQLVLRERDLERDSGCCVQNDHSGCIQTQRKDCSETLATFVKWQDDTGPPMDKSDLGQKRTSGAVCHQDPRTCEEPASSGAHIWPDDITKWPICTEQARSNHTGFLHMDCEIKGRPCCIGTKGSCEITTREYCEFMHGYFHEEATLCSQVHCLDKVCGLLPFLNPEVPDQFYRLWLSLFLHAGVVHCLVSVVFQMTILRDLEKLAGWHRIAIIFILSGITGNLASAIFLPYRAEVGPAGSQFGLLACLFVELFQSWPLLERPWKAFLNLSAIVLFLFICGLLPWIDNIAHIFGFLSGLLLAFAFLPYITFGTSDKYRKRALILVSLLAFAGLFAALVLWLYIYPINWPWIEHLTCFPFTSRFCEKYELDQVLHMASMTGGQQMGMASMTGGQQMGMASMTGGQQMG

T2: hiR2-FL-I483V-T7 (human, UniProt Q6PJF5 1-856)
T2 sequence: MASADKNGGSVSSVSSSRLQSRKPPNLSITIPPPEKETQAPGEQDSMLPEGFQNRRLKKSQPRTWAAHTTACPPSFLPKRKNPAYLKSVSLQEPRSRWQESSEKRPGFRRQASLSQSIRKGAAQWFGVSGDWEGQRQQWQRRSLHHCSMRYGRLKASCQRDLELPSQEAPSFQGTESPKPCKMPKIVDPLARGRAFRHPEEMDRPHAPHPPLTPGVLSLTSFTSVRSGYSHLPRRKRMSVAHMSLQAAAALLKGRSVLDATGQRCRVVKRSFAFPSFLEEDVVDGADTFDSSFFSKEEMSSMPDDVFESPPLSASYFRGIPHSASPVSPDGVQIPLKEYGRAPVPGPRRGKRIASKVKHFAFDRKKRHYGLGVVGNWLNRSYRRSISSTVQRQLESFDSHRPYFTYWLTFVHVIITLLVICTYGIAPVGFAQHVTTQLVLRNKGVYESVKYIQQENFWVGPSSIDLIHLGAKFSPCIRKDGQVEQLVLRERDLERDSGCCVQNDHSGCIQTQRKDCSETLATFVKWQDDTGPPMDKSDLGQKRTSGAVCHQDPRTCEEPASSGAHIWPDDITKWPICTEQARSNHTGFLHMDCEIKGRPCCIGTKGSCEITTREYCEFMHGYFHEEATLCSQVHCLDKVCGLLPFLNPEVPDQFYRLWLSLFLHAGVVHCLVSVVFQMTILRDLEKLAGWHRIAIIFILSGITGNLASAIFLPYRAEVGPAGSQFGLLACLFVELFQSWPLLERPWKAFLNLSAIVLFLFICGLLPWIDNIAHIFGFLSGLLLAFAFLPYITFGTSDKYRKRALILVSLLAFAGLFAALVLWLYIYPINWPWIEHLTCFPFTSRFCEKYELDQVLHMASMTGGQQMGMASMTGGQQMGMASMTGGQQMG


Columns and labels:
hiR2-FL-Q437D-T7 = biological target: T1, hiR2-FL-Q437D-T7; assay: FACS, MEF-DKO cells, 3 µg/ml
Excerpt: (§1) In brief, immortalized MEF-DKO-hiR2-FL-A431S-T7, MEF-DKO-hiR2-FL-V434E-T7, MEF-DKO-hiR2-FL-T436V-T7, MEF-DKO-hiR2-FL-Q437D-T7, MEF-DKO-hiR2-FL-L438S-T7, MEF-DKO-hiR2-FL-S448N-T7, MEF-DKO-hiR2-FL-I452V-T7, MEF-DKO-hiR2-FL-I464E-T7, MEF-DKO-hiR2-FL-D465A-T7, MEF-DKO-hiR2-FL-I477M-T7, MEF-DKO-hiR2-FL-K479Q-T7, MEF-DKO-hiR2-FL-G481P-T7, MEF-DKO-hiR2-FL-I483V-T7, MEF-DKO-hiR2-FL-E484H-T7, MEF-DKO-hiR2-FL-Q485S-T7, MEF-DKO-hiR2-FL-L486F-T7, MEF-DKO-hiR2-FL-V487I-T7, MEF-DKO-hiR2-FL-R489S-T7, MEF-DKO-hiR2-FL-E490A-T7, MEF-DKO-hiR2-FL-D492E-T7, MEF-DKO-hiR2-FL-L493R-T7, MEF-DKO-hiR2-FL-R495K-T7 and MEF-DKO-hiR2-FL-D496H-T7 cells were harvested with 10 mM EDTA in PBS, washed and resuspended in FACS buffer (PBS, 3% FBS, 0.05% sodium azide), and seeded in Nunc U-bottom 96-well plates (Thermo Fisher Scientific, USA) at approximately 1×10⁵ cells per well. To pellet cells and remove supernatants, the plates were centrifuged at 1,500 rpm and 4° C. for 3 minutes. For primary staining, cells were resuspended in 100 μl per well of either FACS buffer alone (controls) or the purified antibodies 3, 5, 16, 22, 34, 42, 43, 44, 48, and 50 of the invention at 3 μg/ml in FACS buffer and incubated on ice for 1 hour. Afterwards, plates were centrifuged at 1,500 rpm and 4° C. for 3 minutes and washed twice with 200 μl per well of FACS buffer. For secondary staining, cells were spun down and resuspended in 100 μl per well of PE-conjugated goat anti-mouse IgG F(ab′)2 detection fragment (Dianova, Germany) diluted 1:100 in FACS buffer. Protected from light, the cell suspensions were incubated on ice for 1 hour. Plates were then centrifuged at 1,500 rpm and 4° C. for 3 minutes and washed three times with 200 μl per well of FACS buffer. Finally, cells were resuspended in 150 μl per well of FACS buffer and analyzed using a BD Accuri™ C6 Plus flow cytometer (Becton Dickinson, Germany).

hiR2-FL-I483V-T7 = biological target: T2, hiR2-FL-I483V-T7; assay: FACS, MEF-DKO cells, 3 µg/ml
Excerpt: as §1

Binder	loss of binding vs wild type (hiR2-FL-Q437D-T7) [%]	loss of binding vs wild type (hiR2-FL-I483V-T7) [%]
antibody 48 (antibody, V domains shown, mouse IgG, kappa light chain; also called clone #48; purified antibody 48) VH: QVQLQQSGTELVRPGTSVKVSCKASGYAFTNYLIEWVKQRPGQGLEWIGVINPGSGFTKYNEKFKGKATLTADKSSSTVYMHLSSLTSEDSAVYFCARGLYRAMDYWGQGTSVTVSS VL: DIQMTQSPASQSASLGESVTITCLASQTIATWLAWYQQKPGKSPQLLIYGATTLADGVPSRFSGGGSGTKFSFKISSLQAEDFVSYYCQQLYSTPYTFGGGTKLEIK	≥ 30	≥ 30
antibody 50 (antibody, V domains shown, mouse IgG, kappa light chain; also called clone #50; purified antibody 50) VH: QVQLQQSGAELVRPGASVKVSCKASGYAFSNYLIEWVKQRPGQGLEWIGVINPGSGFTKYNEKFKGKATLTADKSSSTAYMQLSSLTSEDSAVYFCARGLYRAMDYWGQGTSVTVSS VL: DIQMTQSPASQSASLGESVTITCLASQTIGTWLAWYQQKPGKSPQLLIYAAASLADGVPSRFSGGGSGTKFSFKISSLQAEDFVNYYCQQIYSTPYTFGGGTKLEIK	≥ 30	≥ 30

Reference: patent US20240287172A1 (SCIRHOM, published 2024)
